These are literature values, as cited in publication PMC10532153, “Interactions of the N- and C-Terminal SH3 Domains of Drosophila Drk with the Proline-Rich Peptides from Sos and Dos” (International Journal of Molecular Sciences, 2023).

The data set concerns the target T1, Drk-CSH3 (Drosophila melanogaster, UniProt Q08012).
T1 construct: its N- and C-terminal SH3 domains (Drk-NSH3 and Drk-CSH3, respectively); made in house
The note with it: previous paper on Drk-CSH3; read-out: Kd for Drk-CSH3, nine-residue (“shorter”) Dos peptides. From the text:
Table 1 The calculated dissociation constants (Kds) for Sos- and Dos-derived peptides.

pKd: −log10 of the molar value.

T1 sequence (Q08012 152-211 limits assumed): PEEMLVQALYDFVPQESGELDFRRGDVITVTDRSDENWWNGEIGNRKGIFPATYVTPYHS

In the case of PPVNRKLKP [shorter Dos-S1], the pKd is about 2.85.

As to PSVDRKCKP [shorter Dos-S2], the negative logarithm of the Kd (pKd) was about 2.32.

A word on the pKd: it is −log10 of the Kd, conventionally taken in molar units.
